How the values were obtained:
[1] = biological target: T1, SARS-CoV-2 receptor binding domain (RBD) antigen (SARS-CoV-2, UniProt P0DTC2 319-527)
[2] = biological target: T1, SARS-CoV-2 receptor binding domain …; experiment: yeast surface display, titration of biotinylated RBD, flow cytometry

B1: Reference (VH of Reference fused to a c-Myc epitope tag, displayed on yeast) (VHH)
VHH: QVQLQESGGGLVQAGGSLRLSCAASGRTFSEYAMGWFRQAPGKEREFVATISWSGGSTYYTDSVKGRFTISRDNAKNTVYLQMNSLKPDDTAVYYCAAAGLGTVVSEWDYDYDYWGQGTQVTVSS
[1]
  EC50 (read off the curve): ~6 nM
[2]
  Kd: 6 nM

B2: AB-2 (VH of AB-2 fused to a c-Myc epitope tag, displayed on yeast) (VHH)
VHH: QVQLQESGGGLVQAGGSLRLSCAASGRTFSEYAMGWFRQAPGKEREFVATISYSGGSTYYTDSVKGRFTISRDNAKNTVYLQMNSLKPDDTAVYYCAAAGLGVHVSEWDYDYDYWGQGTQVTVSS
[1]
  EC50 (read off the curve): ~6 nM
[2]
  Kd: 6.6 nM

B3: AB-1 (VH of AB-1 fused to a c-Myc epitope tag, displayed on yeast) (VHH)
VHH: QVQLQESGGGLVQAGGSLRLSCAASGRTFSEYAMGWFRQAPGKEREFVATISWSGGSTYYTDSVKGRFTISRDNAKNTVYLQMNSLKPDDTAVYYCAAAGLGVVLSEWDYDYDYWGQGTQVTVSS
[1]
  EC50 (read off the curve): ~5 nM
[2]
  Kd: 9.3 nM

Reference: patent publication US20230287089A1 (FLAGSHIP PIONEERING INNOVATIONS VI, published 2023)
